Sequences and labels used below:
B1: SMC1A_HUMAN (protein, UniProt Q14683 1-1233, looked up)
Structural maintenance of …: MGFLKLIEIENFKSYKGRQIIGPFQRFTAIIGPNGSGKSNLMDAISFVLGEKTSNLRVKTLRDLIHGAPVGKPAANRAFVSMVYSEEGAEDRTFARVIVGGSSEYKINNKVVQLHEYSEELEKLGILIKARNFLVFQGAVESIAMKNPKERTALFEEISRSGELAQEYDKRKKEMVKAEEDTQFNYHRKKNIAAERKEAKQEKEEADRYQRLKDEVVRAQVQLQLFKLYHNEVEIEKLNKELASKNKEIEKDKKRMDKVEDELKEKKKELGKMMREQQQIEKEIKEKDSELNQKRPQYIKAKENTSHKIKKLEAAKKSLQNAQKHYKKRKGDMDELEKEMLSVEKARQEFEERMEEESQSQGRDLTLEENQVKKYHRLKEEASKRAATLAQELEKFNRDQKADQDRLDLEERKKVETEAKIKQKLREIEENQKRIEKLEEYITTSKQSLEEQKKLEGELTEEVEMAKRRIDEINKELNQVMEQLGDARIDRQESSRQQRKAEIMESIKRLYPGSVYGRLIDLCQPTQKKYQIAVTKVLGKNMDAIIVDSEKTGRDCIQYIKEQRGEPETFLPLDYLEVKPTDEKLRELKGAKLVIDVIRYEPPHIKKALQYACGNALVCDNVEDARRIAFGGHQRHKTVALDGTLFQKSGVISGGASDLKAKARRWDEKAVDKLKEKKERLTEELKEQMKAKRKEAELRQVQSQAHGLQMRLKYSQSDLEQTKTRHLALNLQEKSKLESELANFGPRINDIKRIIQSREREMKDLKEKMNQVEDEVFEEFCREIGVRNIREFEEEKVKRQNEIAKKRLEFENQKTRLGIQLDFEKNQLKEDQDKVHMWEQTVKKDENEIEKLKKEEQRHMKIIDETMAQLQDLKNQHLAKKSEVNDKNHEMEEIRKKLGGANKEMTHLQKEVTAIETKLEQKRSDRHNLLQACKMQDIKLPLSKGTMDDISQEEGSSQGEDSVSGSQRISSIYAREALIEIDYGDLCEDLKDAQAEEEIKQEMNTLQQKLNEQQSVLQRIAAPNMKAMEKLESVRDKFQETSDEFEAARKRAKKAKQAFEQIKKERFDRFNACFESVATNIDEIYKALSRNSSAQAFLGPENPEEPYLDGINYNCVAPGKRFRPMDNLSGGEKTVAALALLFAIHSYKPAPFFVLDEIDAALDNTNIGKVANYIKEQSTCNFQAIVISLKEEFYTKAESLIGVYPEQGDCVISKVLTFDLTKYPDANPNPNEQ
B2: C1TC_HUMAN (protein, UniProt P11586 1-935, looked up)
C-1-tetrahydrofolate …: MAPAEILNGKEISAQIRARLKNQVTQLKEQVPGFTPRLAILQVGNRDDSNLYINVKLKAAEEIGIKATHIKLPRTTTESEVMKYITSLNEDSTVHGFLVQLPLDSENSINTEEVINAIAPEKDVDGLTSINAGKLARGDLNDCFIPCTPKGCLELIKETGVPIAGRHAVVVGRSKIVGAPMHDLLLWNNATVTTCHSKTAHLDEEVNKGDILVVATGQPEMVKGEWIKPGAIVIDCGINYVPDDKKPNGRKVVGDVAYDEAKERASFITPVPGGVGPMTVAMLMQSTVESAKRFLEKFKPGKWMIQYNNLNLKTPVPSDIDISRSCKPKPIGKLAREIGLLSEEVELYGETKAKVLLSALERLKHRPDGKYVVVTGITPTPLGEGKSTTTIGLVQALGAHLYQNVFACVRQPSQGPTFGIKGGAAGGGYSQVIPMEEFNLHLTGDIHAITAANNLVAAAIDARIFHELTQTDKALFNRLVPSVNGVRRFSDIQIRRLKRLGIEKTDPTTLTDEEINRFARLDIDPETITWQRVLDTNDRFLRKITIGQAPTEKGHTRTAQFDISVASEIMAVLALTTSLEDMRERLGKMVVASSKKGEPVSAEDLGVSGALTVLMKDAIKPNLMQTLEGTPVFVHAGPFANIAHGNSSIIADRIALKLVGPEGFVVTEAGFGADIGMEKFFNIKCRYSGLCPHVVVLVATVRALKMHGGGPTVTAGLPLPKAYIQENLELVEKGFSNLKKQIENARMFGIPVVVAVNAFKTDTESELDLISRLSREHGAFDAVKCTHWAEGGKGALALAQAVQRAAQAPSSFQLLYDLKLPVEDKIRIIAQKIYGADDIELLPEAQHKAEVYTKQGFGNLPICMAKTHLSLSHNPEQKGVPTGFILPIRDIRASVGAGFLYPLVGTMSTMPGLPTRPCFYDIDLDPETEQVNGLF
B3: SYIM_HUMAN (protein, UniProt Q9NSE4 49-1012, looked up)
Isoleucine--tRNA ligase, …: SNHQPNSNSGRYRDTVLLPQTSFPMKLLGRQQPDTELEIQQKCGFSELYSWQRERKVKTEFCLHDGPPYANGDPHVGHALNKILKDIANRFHMMNGSKIHFVPGWDCHGLPIEIKVLSELGREAQNLSAMEIRKKARSFAKAAIEKQKSAFIRWGIMADWNNCYYTFDGKYEAKQLRTFYQMYDKGLVYRSYKPVFWSPSSRTALAEAELEYNPEHVSRSIYVKFPLLKPSPKLASLIDGSSPVSILVWTTQPWTIPANEAVCYMPESKYAVVKCSKSGDLYVLAADKVASVASTLETTFETISTLSGVDLENGTCSHPLIPDKASPLLPANHVTMAKGTGLVHTAPAHGMEDYGVASQHNLPMDCLVDEDGVFTDVAGPELQNKAVLEEGTDVVIKMLQTAKNLLKEEKLVHSYPYDWRTKKPVVIRASKQWFINITDIKTAAKELLKKVKFIPGSALNGMVEMMDRRPYWCISRQRVWGVPIPVFHHKTKDEYLINSQTTEHIVKLVEQHGSDIWWTLPPEQLLPKEVLSEVGGPDALEYVPGQDILDIWFDSGTSWSYVLPGPDQRADLYLEGKDQLGGWFQSSLLTSVAARKRAPYKTVIVHGFTLGEKGEKMSKSLGNVIHPDVVVNGGQDQSKEPPYGADVLRWWVADSNVFTEVAIGPSVLNAARDDISKLRNTLRFLLGNVADFNPETDSIPVNDMYVIDQYMLHLLQDLANKITELYKQYDFGKVVRLLRTFYTRELSNFYFSIIKDRLYCEKENDPKRRSCQTALVEILDVIVRSFAPILPHLAEEVFQHIPYIKEPKSVFRTGWISTSSIWKKPGLEEAVESACAMRDSFLGSIPGKNAAEYKVITVIEPGLLFEIIEMLQSEETSSTSQLNELMMASESTLLAQEPREMTADVIELKGKFLINLEGGDIREESSYKVIVMPTTKEKCPRCWKYTAESSDTLCPRCAEVVSGK
B4: HNRPM_HUMAN (protein, UniProt P52272 2-730, looked up)
Heterogeneous nuclear …: AAGVEAAAEVAATEIKMEEESGAPGVPSGNGAPGPKGEGERPAQNEKRKEKNIKRGGNRFEPYANPTKRYRAFITNIPFDVKWQSLKDLVKEKVGEVTYVELLMDAEGKSRGCAVVEFKMEESMKKAAEVLNKHSLSGRPLKVKEDPDGEHARRAMQKVMATTGGMGMGPGGPGMITIPPSILNNPNIPNEIIHALQAGRLGSTVFVANLDYKVGWKKLKEVFSMAGVVVRADILEDKDGKSRGIGTVTFEQSIEAVQAISMFNGQLLFDRPMHVKMDERALPKGDFFPPERPQQLPHGLGGIGMGLGPGGQPIDANHLNKGIGMGNIGPAGMGMEGIGFGINKMGGMEGPFGGGMENMGRFGSGMNMGRINEILSNALKRGEIIAKQGGGGGGGSVPGIERMGPGIDRLGGAGMERMGAGLGHGMDRVGSEIERMGLVMDRMGSVERMGSGIERMGPLGLDHMASSIERMGQTMERIGSGVERMGAGMGFGLERMAAPIDRVGQTIERMGSGVERMGPAIERMGLSMERMVPAGMGAGLERMGPVMDRMATGLERMGANNLERMGLERMGANSLERMGLERMGANSLERMGPAMGPALGAGIERMGLAMGGGGGASFDRAIEMERGNFGGSFAGSFGGAGGHAPGVARKACQIFVRNLPFDFTWKMLKDKFNECGHVLYADIKMENGKSKGCGVVKFESPEVAERACRMMNGMKLSGREIDVRIDRNA
B5: AAAT_HUMAN (protein, UniProt Q15758 1-541, looked up)
Neutral amino acid …: MVADPPRDSKGLAAAEPTANGGLALASIEDQGAAAGGYCGSRDQVRRCLRANLLVLLTVVAVVAGVALGLGVSGAGGALALGPERLSAFVFPGELLLRLLRMIILPLVVCSLIGGAASLDPGALGRLGAWALLFFLVTTLLASALGVGLALALQPGAASAAINASVGAAGSAENAPSKEVLDSFLDLARNIFPSNLVSAAFRSYSTTYEERNITGTRVKVPVGQEVEGMNILGLVVFAIVFGVALRKLGPEGELLIRFFNSFNEATMVLVSWIMWYAPVGIMFLVAGKIVEMEDVGLLFARLGKYILCCLLGHAIHGLLVLPLIYFLFTRKNPYRFLWGIVTPLATAFGTSSSSATLPLMMKCVEENNGVAKHISRFILPIGATVNMDGAALFQCVAAVFIAQLSQQSLDFVKIITILVTATASSVGAAGIPAGGVLTLAIILEAVNLPVDHISLILAVDWLVDRSCTVLNVEGDALGAGLLQNYVDRTESRSTEPELIQVKSELPLDPLPVPTEEGNPLLKHYRGPAGDATVASEKESVM
B6: P5CS_HUMAN (protein, UniProt P54886 1-795, looked up)
Delta-1-pyrroline-5-carboxylat …: MLSQVYRCGFQPFNQHLLPWVKCTTVFRSHCIQPSVIRHVRSWSNIPFITVPLSRTHGKSFAHRSELKHAKRIVVKLGSAVVTRGDECGLALGRLASIVEQVSVLQNQGREMMLVTSGAVAFGKQRLRHEILLSQSVRQALHSGQNQLKEMAIPVLEARACAAAGQSGLMALYEAMFTQYSICAAQILVTNLDFHDEQKRRNLNGTLHELLRMNIVPIVNTNDAVVPPAEPNSDLQGVNVISVKDNDSLAARLAVEMKTDLLIVLSDVEGLFDSPPGSDDAKLIDIFYPGDQQSVTFGTKSRVGMGGMEAKVKAALWALQGGTSVVIANGTHPKVSGHVITDIVEGKKVGTFFSEVKPAGPTVEQQGEMARSGGRMLATLEPEQRAEIIHHLADLLTDQRDEILLANKKDLEEAEGRLAAPLLKRLSLSTSKLNSLAIGLRQIAASSQDSVGRVLRRTRIAKNLELEQVTVPIGVLLVIFESRPDCLPQVAALAIASGNGLLLKGGKEAAHSNRILHLLTQEALSIHGVKEAVQLVNTREEVEDLCRLDKMIDLIIPRGSSQLVRDIQKAAKGIPVMGHSEGICHMYVDSEASVDKVTRLVRDSKCEYPAACNALETLLIHRDLLRTPLFDQIIDMLRVEQVKIHAGPKFASYLTFSPSEVKSLRTEYGDLELCIEVVDNVQDAIDHIHKYGSSHTDVIVTEDENTAEFFLQHVDSACVFWNASTRFSDGYRFGLGAEVGISTSRIHARGPVGLEGLLTTKWLLRGKDHVVSDFSEHGSLKYLHENLPIPQRNTN
B7: C1TM_HUMAN (protein, UniProt Q6UB35 32-978, looked up)
Monofunctional …: SSGGGGGGGGGREGLLGQRRPQDGQARSSCSPGGRTPAARDSIVREVIQNSKEVLSLLQEKNPAFKPVLAIIQAGDDNLMQEINQNLAEEAGLNITHICLPPDSSEAEIIDEILKINEDTRVHGLALQISENLFSNKVLNALKPEKDVDGVTDINLGKLVRGDAHECFVSPVAKAVIELLEKSGVNLDGKKILVVGAHGSLEAALQCLFQRKGSMTMSIQWKTRQLQSKLHEADIVVLGSPKPEEIPLTWIQPGTTVLNCSHDFLSGKVGCGSPRIHFGGLIEEDDVILLAAALRIQNMVSSGRRWLREQQHRRWRLHCLKLQPLSPVPSDIEISRGQTPKAVDVLAKEIGLLADEIEIYGKSKAKVRLSVLERLKDQADGKYVLVAGITPTPLGEGKSTVTIGLVQALTAHLNVNSFACLRQPSQGPTFGVKGGAAGGGYAQVIPMEEFNLHLTGDIHAITAANNLLAAAIDTRILHENTQTDKALYNRLVPLVNGVREFSEIQLARLKKLGINKTDPSTLTEEEVSKFARLDIDPSTITWQRVLDTNDRFLRKITIGQGNTEKGHYRQAQFDIAVASEIMAVLALTDSLADMKARLGRMVVASDKSGQPVTADDLGVTGALTVLMKDAIKPNLMQTLEGTPVFVHAGPFANIAHGNSSVLADKIALKLVGEEGFVVTEAGFGADIGMEKFFNIKCRASGLVPNVVVLVATVRALKMHGGGPSVTAGVPLKKEYTEENIQLVADGCCNLQKQIQITQLFGVPVVVALNVFKTDTRAEIDLVCELAKRAGAFDAVPCYHWSVGGKGSVDLARAVREAASKRSRFQFLYDVQVPIVDKIRTIAQAVYGAKDIELSPEAQAKIDRYTQQGFGNLPICMAKTHLSLSHQPDKKGVPRDFILPISDVRASIGAGFIYPLVGTMSTMPGLPTRPCFYDIDLDTETEQVKGLF

The subject of this assay is KDM4A-I71AzF. As to the kind of experiment: CASI: photo-crosslinking with HEK293T cell extracts, StrepTactin enrichment and LC-MS/MS proteomics.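 Further: lysates from HEK293T cells pretreated with a KDM4 inhibitor to raise proteome methylation, affinity-purified after ±UV, gel-resolved, trypsin-digested, with exclusive unique peptides per protein averaged per condition.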 The class given is binding, human. The conditions noted are these: sheet "Final results but with 0.01".
As for B1, the “Fold change (+UV/-UV)” value turned out to be 0.4286.

As for B2, the “Fold change (+UV/-UV)” value was 0.9444.

In the case of B3, the “Fold change (+UV/-UV)” value is 4.

As for B4, the “Fold change (+UV/-UV)” value is on record as 1.

Consider B5, for which the “Fold change (+UV/-UV)” value amounted to 0.25.

As for B6, the “Fold change (+UV/-UV)” value is 2.143.

In the case of B7, the “Fold change (+UV/-UV)” value is reported as 1.091.

The record behind these values is publication PMC10540216, “Activity Guided Azide-methyllysine Photo-trapping for Substrate Profiling of Lysine Demethylases” (Journal of the American Chemical Society, 2023).
